{
  "source": "patent US10864251B2",
  "about": "“Peptides of syndecan-1 for inhibiting angiogenesis” (Wisconsin Alumni Research Foundation, priority 2006, dated 2020)",
  "molecules": {"B1": {"name": "S1ED: recombinant mouse Sdc1 ectodomain (amino acids 18-251), expressed in bacteria as GST fusion or 6×His-tagged protein (protein)", "chain": "QPALPQIVAVNVPPEDQDGSGDDSDNFSGSGTGALPDTLSRQTPSTWKDVWLLTATPTAPEPTSSNTETAFTSVLPAGEKPEEGEPVLHVEAEPGFTARDKEKEVTTRPRETVQLPITQRASTVRVTTAQAAVTSHPHGGMQPGLHETSAPTAPGQPDHQPPRVEGGGTSVIKEVVEDGTANQLPAGEGSGEQDFTFETSGENTAVAAVEPGLRNQPPVDEGATGASQSLLDRK", "modifications": "left off: a dimerising Fc or GST", "notes": "recombinant mouse Sdc1 ectodomain (amino acids 18-251), expressed in bacteria as GST fusion or 6×His-tagged protein"}},
  "key": {"[1]": {"tested_on": "human aortic endothelial cells (HAEC)", "test": "Cell attachment and spreading on VN, HAECs", "format": "cell-based", "protocol": "FIG. 2—Human aortic endothelial cells rely on αvβ3 and αvβ5 integrins for spreading on VN. Human aortic endothelial cells (HAECs) were suspended and replated on 10 μg/ml VN in the presence of integrin inhibitory antibodies mAb 13 (specific for β1-containing integrins; this will inhibit the αvβ1 integrin), LM609 (specific for the αvβ3 integrin) and P1F6 (specific for the αvβ5 integrin), or combinations of these mAbs. After 2 hr, the cells were fixed, stained with Alexa488-conjugated phalloidin to aid in visualization, and observed by fluorescence microscopy to document integrin-dependent spreading. Inhibition of spreading requires simultaneous inhibition of both αvβ3 and αvβ5 integrins.\nFIG. 3—αvβ3 and αvβ5 integrin-mediated spreading of human aortic endothelial cells on VN is disrupted by recombinant Sdc1 ectodomain fusion protein. HAECs were plated on VN in the presence of no competitor, 1-10 μM GST-mS1ED (recombinant mouse Sdc1 ectodomain expressed as a fusion protein with GST) or GST alone.\nFIG. 4—Inhibition of HAEC spreading on VN by silencing of Sdc-1. […]\nFIGS. 10A-10D—Dependence of HMEC cell attachment and spreading on integrin activation by Sdc1 and its inhibition by SSTN. […] Sdc1 expression was quantified by flow cytometry using human Sdc1-specific mAb B-B4 or a control mouse IgG. […]"}, "[2]": {"molecular_target": "T1, syndecan-1 association with the αvβ3 integrin (Homo sapiens, UniProt P05106+P06756)", "T1 construct": "endogenous in cells; host or cells: MDA-MB-231 human mammary carcinoma cells (some also transfected with mouse syndecan-1 constructs)", "T1 sequence (P06756 31-889 limits assumed)": "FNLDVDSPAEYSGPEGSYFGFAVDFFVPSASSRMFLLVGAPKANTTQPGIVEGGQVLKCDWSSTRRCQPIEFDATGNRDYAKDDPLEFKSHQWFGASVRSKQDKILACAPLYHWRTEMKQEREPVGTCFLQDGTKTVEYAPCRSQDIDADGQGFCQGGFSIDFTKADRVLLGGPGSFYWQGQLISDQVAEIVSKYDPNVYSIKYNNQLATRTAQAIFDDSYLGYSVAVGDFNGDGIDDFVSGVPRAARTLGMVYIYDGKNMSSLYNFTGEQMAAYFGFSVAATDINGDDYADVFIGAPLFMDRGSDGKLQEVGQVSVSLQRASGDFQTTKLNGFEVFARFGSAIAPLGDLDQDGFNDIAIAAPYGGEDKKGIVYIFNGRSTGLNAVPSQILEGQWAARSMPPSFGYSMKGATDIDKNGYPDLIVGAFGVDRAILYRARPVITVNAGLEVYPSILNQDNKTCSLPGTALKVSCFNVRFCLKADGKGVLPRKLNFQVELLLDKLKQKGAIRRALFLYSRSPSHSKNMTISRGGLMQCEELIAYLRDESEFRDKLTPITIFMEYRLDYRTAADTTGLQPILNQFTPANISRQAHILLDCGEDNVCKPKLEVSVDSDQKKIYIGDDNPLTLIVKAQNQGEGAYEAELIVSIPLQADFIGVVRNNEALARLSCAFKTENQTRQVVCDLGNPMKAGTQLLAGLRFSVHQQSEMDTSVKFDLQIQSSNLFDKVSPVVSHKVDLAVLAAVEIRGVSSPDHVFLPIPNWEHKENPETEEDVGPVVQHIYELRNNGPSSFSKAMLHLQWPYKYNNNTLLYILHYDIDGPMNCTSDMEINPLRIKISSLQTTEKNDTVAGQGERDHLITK", "T1 sequence (P06756 891-1048 limits assumed)": "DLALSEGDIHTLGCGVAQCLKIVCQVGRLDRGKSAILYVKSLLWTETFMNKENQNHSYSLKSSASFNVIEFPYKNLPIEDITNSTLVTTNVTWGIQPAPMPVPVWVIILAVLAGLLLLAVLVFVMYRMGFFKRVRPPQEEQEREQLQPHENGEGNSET", "T1 sequence (P05106 27-788)": "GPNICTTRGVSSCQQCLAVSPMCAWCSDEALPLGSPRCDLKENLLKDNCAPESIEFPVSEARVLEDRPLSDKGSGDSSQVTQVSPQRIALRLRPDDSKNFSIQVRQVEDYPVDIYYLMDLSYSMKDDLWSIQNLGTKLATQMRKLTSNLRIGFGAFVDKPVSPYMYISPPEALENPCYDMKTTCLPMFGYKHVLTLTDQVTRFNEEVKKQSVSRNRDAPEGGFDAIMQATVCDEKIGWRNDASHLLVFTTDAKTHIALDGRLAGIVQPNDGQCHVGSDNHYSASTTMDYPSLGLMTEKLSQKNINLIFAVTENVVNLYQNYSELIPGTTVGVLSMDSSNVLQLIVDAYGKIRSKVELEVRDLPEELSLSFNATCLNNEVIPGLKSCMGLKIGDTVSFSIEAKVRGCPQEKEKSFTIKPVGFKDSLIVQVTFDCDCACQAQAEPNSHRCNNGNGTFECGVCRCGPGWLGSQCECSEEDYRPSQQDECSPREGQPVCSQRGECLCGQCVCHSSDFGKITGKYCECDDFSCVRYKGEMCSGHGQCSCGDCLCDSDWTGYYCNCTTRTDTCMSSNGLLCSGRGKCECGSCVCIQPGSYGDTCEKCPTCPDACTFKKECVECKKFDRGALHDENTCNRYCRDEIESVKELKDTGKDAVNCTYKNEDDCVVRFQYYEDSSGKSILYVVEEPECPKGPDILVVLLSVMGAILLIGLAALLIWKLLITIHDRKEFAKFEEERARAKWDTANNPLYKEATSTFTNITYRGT", "test": "Co-immunoprecipitation of αvβ3 integrin with syndecan-1 from MDA-MB-231 cells", "format": "binding", "description": "(§1) FIGS. 8A-8D—SSTN disrupts association of syndecan-1 with the αvβ3 and αvβ5 integrins. (FIG. 8A) Diagram of mouse syndecan-4 (mS4), human syndecan-1 (hS1) and mouse syndecan-1 (mS1) and mS1 deletion mutants showing which proteoglycans are able to activate the αvβ3 and αvβ5 integrins. (FIG. 8B) Flow cytometry of human aortic endothelial cells (HAEC), human dermal microvascular endothelial cells (HMEC-1) or mouse aortic endothelial cells (MAEC) using human or mouse-specific antibodies for syndecan-1, αvβ3, and αvβ5. The β5 subunit is detected by Western blot in mouse cells and is compared to B82L fibroblasts known to express this integrin; (FIG. 8C) Human syndecan-1 is immunoprecipitated from HMEC-1 cells in the presence or absence of 30 μM GST, 30 μM GST-mS1ED (mouse syndecan-1 ectodomain), or 1 μM SSTN and detected on blots along with co-precipitating β3 or β5 integrin. (FIG. 8D) Human syndecan-1 is immunoprecipitated from MDA-MB-231 human mammary carcinoma cells expressing full-length mouse syndecan-1 (F1-mS1), a mouse mutant bearing deletion of amino acids 67-121 (mS1^Δ67-121), or vector alone (NEO) and blotted for the co-precipitation of the αvβ3 integrin by detection of the β3 subunit. […]"}, "[3]": {"tested_on": "syndecan-1 association with the αvβ3 and αvβ5 integrins", "test": "Co-immunoprecipitation of β3/β5 integrin with syndecan-1 from HMEC-1 cells", "format": "binding, human", "details": "HMEC-1, 30 μM GST-mS1ED or 1 μM SSTN", "description": "as §1"}},
  "data": [
    {"molecule": "B1", "values": [
      {"measurement": "IC50", "setting": "[1]; read-out: IC50, cell spreading on vitronectin", "result": "~1000", "unit": "nM"},
      {"measurement": "cell spreading on VN", "setting": "[1]; soluble competitor 1-10 μM (FIG. 3)", "result": "blocked"},
      {"measurement": "co-immunoprecipitation of αvβ3 integrin with human or mouse syndecan-1", "setting": "[2]", "result": "competed"},
      {"measurement": "co-precipitation of β3 and β5 integrin with human syndecan-1", "setting": "[3]", "result": "displace the integrins"}
    ]}
  ]
}
